The values below come from PMC12077208 (2025).

The target of this assay is nuclear translocation factor 2-like (NTF2L) domain of human G3BP1 (human, UniProt Q13283-1 1-138). The assay is described as follows: ITC.
nuclear translocation factor 2-like (NTF2L) domain of human G3BP1, sequence (Q13283 other isoform, or with tags, fused parts or gaps): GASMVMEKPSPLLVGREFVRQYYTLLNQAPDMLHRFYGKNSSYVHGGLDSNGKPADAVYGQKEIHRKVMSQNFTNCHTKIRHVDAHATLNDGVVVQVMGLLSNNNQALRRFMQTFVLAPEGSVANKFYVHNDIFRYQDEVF

B1: CHIKV-26 peptide (residues Ile473 to Pro498 of CHIKV nsP3, without the α2 region) (peptide)
peptide: ITFGDFNDGEIESLSSELLTFGDFLP
As to B1, the Kd (usually the constant that tells how readily two partners part at equilibrium) amounted to 7.8 µM.

B2: CHIKV nsP3 peptide CHIKV-43 (residues Glu469-Thr511) (peptide)
chain: GPLGSETFPITFGDFNDGEIESLSSELLTFGDFLPGEVDDLTDSDWSTHHHHHH
As for B2, the Kd stood at 0.078 µM.
